We go through one molecule from US20250121082A1 (SHANDONG BOAN BIOTECHNOLOGY, published 2025).

Common to all, as to test: cell-based or functional assay
For assay [1], the target named is T1, CD228 on cells stably expressing exogenous CD228 gene (MC38-CD228, A375-CD228, A549-CD228) (UniProt P08582 20-709).
T1 sequence (looked up): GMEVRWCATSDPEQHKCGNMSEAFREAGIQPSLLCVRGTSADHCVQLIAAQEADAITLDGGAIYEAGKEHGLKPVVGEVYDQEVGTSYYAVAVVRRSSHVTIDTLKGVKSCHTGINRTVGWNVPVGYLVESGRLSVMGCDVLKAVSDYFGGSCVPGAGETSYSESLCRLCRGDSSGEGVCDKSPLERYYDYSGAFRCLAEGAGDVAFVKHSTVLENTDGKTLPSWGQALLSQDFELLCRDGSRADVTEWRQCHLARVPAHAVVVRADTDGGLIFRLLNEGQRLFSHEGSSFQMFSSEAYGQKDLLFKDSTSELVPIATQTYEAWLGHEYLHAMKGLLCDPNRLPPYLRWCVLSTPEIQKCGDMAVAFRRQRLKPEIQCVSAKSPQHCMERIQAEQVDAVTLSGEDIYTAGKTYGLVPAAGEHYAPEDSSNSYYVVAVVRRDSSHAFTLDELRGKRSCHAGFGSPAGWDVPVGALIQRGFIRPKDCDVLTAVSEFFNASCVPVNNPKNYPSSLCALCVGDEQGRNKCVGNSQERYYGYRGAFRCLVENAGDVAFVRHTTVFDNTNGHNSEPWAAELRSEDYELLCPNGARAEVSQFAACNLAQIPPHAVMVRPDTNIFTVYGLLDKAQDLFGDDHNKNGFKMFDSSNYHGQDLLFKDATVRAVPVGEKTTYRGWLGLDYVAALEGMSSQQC

The target of assay [2] is T2, CD228 protein on human melanoma SK-MEL-5 cells (human, UniProt P08582 20-709).
T2 sequence (looked up): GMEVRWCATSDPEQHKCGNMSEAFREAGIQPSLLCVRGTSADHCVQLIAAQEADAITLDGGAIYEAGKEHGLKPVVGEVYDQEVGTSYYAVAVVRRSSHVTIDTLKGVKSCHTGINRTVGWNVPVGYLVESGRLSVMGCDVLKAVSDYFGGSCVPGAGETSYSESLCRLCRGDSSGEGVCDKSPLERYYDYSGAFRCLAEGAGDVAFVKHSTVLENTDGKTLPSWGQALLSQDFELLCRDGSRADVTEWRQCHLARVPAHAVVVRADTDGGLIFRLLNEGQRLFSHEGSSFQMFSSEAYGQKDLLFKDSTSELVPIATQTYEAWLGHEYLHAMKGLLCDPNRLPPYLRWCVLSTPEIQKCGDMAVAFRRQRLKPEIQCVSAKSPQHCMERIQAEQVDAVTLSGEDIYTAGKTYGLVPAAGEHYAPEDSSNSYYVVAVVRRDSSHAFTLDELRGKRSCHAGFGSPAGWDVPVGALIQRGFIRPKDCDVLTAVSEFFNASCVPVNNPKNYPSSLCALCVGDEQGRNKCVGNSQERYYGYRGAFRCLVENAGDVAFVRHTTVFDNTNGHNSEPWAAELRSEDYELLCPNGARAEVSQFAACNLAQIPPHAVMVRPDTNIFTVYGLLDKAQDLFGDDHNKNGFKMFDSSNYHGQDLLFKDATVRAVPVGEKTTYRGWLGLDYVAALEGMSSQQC

Assay [3] addresses T1, CD228 on cells stably expressing …. This is another data set of the same source.

Read-outs that look alike come from different tables or passages of the source.

B1: CA149-BNLD11 (antibody, human IgG1, kappa, V domains shown)
VH: EVQLVESGGGVVQPGRSLRLSCAASGFTFSSYAMHWVRQAPGKGLEWVAVISFDGSNKYYTDSVKGRFTISRDNSKNTLYLQMNSLRAEDTAVYYCAREVPYYYGSGPFDYWGQGTLVTVSS
VL: EIVLTQSPATLSVSPGERATLSCRASQSVSSNLAWYQQKPGQAPRHLIDGASSRASGIPDRFSGSGSGTDFTLTISRLEPEDFAVYYCQQYGSSPPFTFGPGTKVDIKR
modifications: BNLD11 linker-drug coupled to the TCEP-reduced antibody; sites not stated; BNLD11 linker-drug (MC-β-Ala-(glucuronide)PAB-MMAE) coupled to the TCEP-reduced antibody, average DAR 4.1; sites not stated
As for B1, in assay [1], the “IC50 (ng/mL), inhibition of A375-CD228 cell proliferation” value was 13.9 ng/mL and the “IC50 (ng/mL), inhibition of A549-CD228 cell proliferation” value amounted to 15.2 ng/mL. The “IC50 (ng/mL), inhibition of SK-MEL-5 cell proliferation” value in assay [2] was 11.5 ng/mL. For the same molecule, in assay [3], the “IC50 (ng/mL), inhibition of A375-CD228 cell proliferation” value is 61.8 ng/mL and the “IC50 (ng/mL), inhibition of MC38-CD228 cell proliferation” value was determined as 102 ng/mL.
